The text below walks through data of the supplement of paper PMC10567573.

To fix the notation:
B1: MATN2 (parent)
chain: FSLKTFKRKSEVERAVKRMRHLST
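Note: lentivirally expressed fusions sorted by FACS into six bins by GFP to DsRed ratio, PSI derived from sequencing read proportions per bin multiplied by bin number.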

In this data set the parent is B1. Briefly: protein stability index of a GFP-peptide fusion (GPS, HEK-293T) (PSI 1-6); higher = more stable. As to conditions: c terminus: a fixed tail appended.
FSLKTFKRKSIVERAVKRMRHLST [E11I]: the protein stability index was 1.96.

With FSLKTFKRKSQVERAVKRMRHLST [E11Q], the protein stability index was 2.44.

In the case of FSLKTFKRKSSVERAVKRMRHLST [E11S], the protein stability index is 1.98.

FSLKTFKRKSEVERAVARMRHLST [K17A]: the protein stability index stood at 2.26.

As for FSLKTFKRKSEVERAVERMRHLST [K17E], the protein stability index was determined as 2.38.

With FSLKTFKRKSEVERAVCRMRHLST [K17C], the protein stability index amounted to 2.35.

For FSLKTFKRKSEVERAVDRMRHLST [K17D], the protein stability index was found to be 2.92.

FSLKTFKRKSEVEPAVKRMRHLST [R14P]: the protein stability index is 2.49.

Take FSLKTFKRKSEVEVAVKRMRHLST [R14V]: the protein stability index stood at 2.75.

As for FSLKTFKRKSEVEWAVKRMRHLST [R14W], the protein stability index is 2.25.

In the case of FSLKTFKRKSEVECAVKRMRHLST [R14C], the protein stability index was 1.83.

For FSLKTFKRKSEVEHAVKRMRHLST [R14H], the protein stability index is 2.28.

For FSLKTFKRKSEVENAVKRMRHLST [R14N], the protein stability index was determined as 2.46.

FSLKTFKRKSEVEGAVKRMRHLST [R14G]: the protein stability index was found to be 2.15.

For the variant FSLKTFKRKSEVEEAVKRMRHLST [R14E], the protein stability index was 2.49.

FSLKTFKRKSEVEDAVKRMRHLST [R14D]: the protein stability index turned out to be 2.73.

As for FSLKTFKRKSEVEMAVKRMRHLST [R14M], the protein stability index is 3.08.

With FSLKTFKRKSEVESAVKRMRHLST [R14S], the protein stability index came to 2.49.

Consider FSLKTFKRKSEVEKAVKRMRHLST [R14K], for which the protein stability index was 3.11.

As for FSLKTFKRKSEVETAVKRMRHLST [R14T], the protein stability index was found to be 2.87.

Turning to FSLKTFKRKSEVELAVKRMRHLST [R14L], the protein stability index was found to be 1.96.

On to FSLKTFKRKSEVEFAVKRMRHLST [R14F], for which the protein stability index was 2.65.

FSLKTFKRKSEAERAVKRMRHLST [V12A]: the protein stability index came to 2.36.

For FSLKTFKRKSEPERAVKRMRHLST [V12P], the protein stability index came out at 2.5.

Consider FSLKTFKRKSEHERAVKRMRHLST [V12H], for which the protein stability index was 2.54.

On to FSLKTFKRKSEYERAVKRMRHLST [V12Y], for which the protein stability index was determined as 2.12.

In the case of FSLKTFKRKSEQERAVKRMRHLST [V12Q], the protein stability index was found to be 3.15.

On to FSLKTFKRKSEWERAVKRMRHLST [V12W], for which the protein stability index worked out at 1.24.

As to FSLKTFKRKSEGERAVKRMRHLST [V12G], the protein stability index turned out to be 2.91.

For FSLKTFKRKSERERAVKRMRHLST [V12R], the protein stability index was 3.19.

Turning to FSLKTFKRKSEMERAVKRMRHLST [V12M], the protein stability index came to 2.11.

For the variant FSLKTFKRKSEFERAVKRMRHLST [V12F], the protein stability index came out at 1.4.

In the case of FSLKTFKRKSESERAVKRMRHLST [V12S], the protein stability index is 2.98.

Consider FSLKTFKRKSECERAVKRMRHLST [V12C], for which the protein stability index stood at 2.25.

Consider FSLKTFKRKSEEERAVKRMRHLST [V12E], for which the protein stability index came to 2.34.

On to FSLKTFKRKSEKERAVKRMRHLST [V12K], for which the protein stability index was found to be 3.17.

As for FSLKTFKRKSENERAVKRMRHLST [V12N], the protein stability index came to 1.87.

As for FSLKTFKRKSELERAVKRMRHLST [V12L], the protein stability index was 2.56.

FSLKTFKRKSETERAVKRMRHLST [V12T]: the protein stability index is 2.38.

FSLKTFKRKREVERAVKRMRHLST [S10R]: the protein stability index stood at 2.46.

As to FSLKTFKRKHEVERAVKRMRHLST [S10H], the protein stability index was determined as 2.77.

Consider FSLKTFKRKAEVERAVKRMRHLST [S10A], for which the protein stability index came to 1.72.

For FSLKTFKRKPEVERAVKRMRHLST [S10P], the protein stability index is 2.62.

Regarding FSLKTFKRKNEVERAVKRMRHLST [S10N], the protein stability index is 3.07.

For the variant FSLKTFKRKLEVERAVKRMRHLST [S10L], the protein stability index was 1.39.

As to FSLKTFKRKTEVERAVKRMRHLST [S10T], the protein stability index is 2.73.

With FSLKTFKRKKEVERAVKRMRHLST [S10K], the protein stability index was 2.21.

Consider FSLKTFKRKQEVERAVKRMRHLST [S10Q], for which the protein stability index was 2.26.

For the variant FSLKTFKRKGEVERAVKRMRHLST [S10G], the protein stability index is 1.99.

Consider FSLKTFKRKVEVERAVKRMRHLST [S10V], for which the protein stability index was found to be 3.04.

Take FSLKTFKRKDEVERAVKRMRHLST [S10D]: the protein stability index is 2.05.

For FSLKTFKRKYEVERAVKRMRHLST [S10Y], the protein stability index turned out to be 2.3.

Turning to FSLKTFKRKFEVERAVKRMRHLST [S10F], the protein stability index was determined as 1.77.

As for FSLKTFKRKWEVERAVKRMRHLST [S10W], the protein stability index turned out to be 2.88.

FSLKTFKRKIEVERAVKRMRHLST [S10I]: the protein stability index is 1.49.

Take FSLKTFKRKEEVERAVKRMRHLST [S10E]: the protein stability index was found to be 2.42.

In the case of FSLKTFKRKMEVERAVKRMRHLST [S10M], the protein stability index is 1.91.

For the variant FSLKTFKRKSEVNRAVKRMRHLST [E13N], the protein stability index stood at 2.83.

As to FSLKTFKRKSEVARAVKRMRHLST [E13A], the protein stability index was determined as 2.

On to FSLKTFKRKSEVSRAVKRMRHLST [E13S], for which the protein stability index was determined as 2.34.

With FSLKTFKRKSEVVRAVKRMRHLST [E13V], the protein stability index turned out to be 2.11.

Consider FSLKTFKRKSEVDRAVKRMRHLST [E13D], for which the protein stability index is 2.52.

For FSLKTFKRKSEVCRAVKRMRHLST [E13C], the protein stability index amounted to 1.83.

For the variant FSLKTFKRKSEVTRAVKRMRHLST [E13T], the protein stability index turned out to be 2.41.

Consider FSLKTFKRKSEVHRAVKRMRHLST [E13H], for which the protein stability index turned out to be 2.37.

Consider FSLKTFKRKSEVRRAVKRMRHLST [E13R], for which the protein stability index came to 2.22.

Regarding FSLKTFKRKSEVMRAVKRMRHLST [E13M], the protein stability index turned out to be 2.25.

Regarding FSLKTFKRKSEVFRAVKRMRHLST [E13F], the protein stability index came to 2.08.

Turning to FSLKTFKRKSEVPRAVKRMRHLST [E13P], the protein stability index amounted to 3.15.

As to FSLKTFKRKSEVKRAVKRMRHLST [E13K], the protein stability index is 2.69.

With FSLKTFKRKSEVYRAVKRMRHLST [E13Y], the protein stability index stood at 2.94.

As to FSLKTFKRKSEVLRAVKRMRHLST [E13L], the protein stability index worked out at 2.28.

As for FSLKTFKRKSEVGRAVKRMRHLST [E13G], the protein stability index turned out to be 1.83.

With FSLKTFKRKSEVIRAVKRMRHLST [E13I], the protein stability index is 2.29.

Consider FSLKTFKRKSEVQRAVKRMRHLST [E13Q], for which the protein stability index was 2.9.

Consider FSLKTFKRKSEVWRAVKRMRHLST [E13W], for which the protein stability index was 1.4.

With FSLKTFKRKSEVERFVKRMRHLST [A15F], the protein stability index was 2.94.

With FSLKTFKRKSEVERNVKRMRHLST [A15N], the protein stability index worked out at 2.81.

With FSLKTFKRKSEVERVVKRMRHLST [A15V], the protein stability index was found to be 2.27.

As to FSLKTFKRKSEVEREVKRMRHLST [A15E], the protein stability index stood at 2.73.

Turning to FSLKTFKRKSEVERYVKRMRHLST [A15Y], the protein stability index came to 1.59.

Turning to FSLKTFKRKSEVERIVKRMRHLST [A15I], the protein stability index is 1.38.

Turning to FSLKTFKRKSEVERPVKRMRHLST [A15P], the protein stability index amounted to 2.43.

Consider FSLKTFKRKSEVERCVKRMRHLST [A15C], for which the protein stability index worked out at 2.27.

As for FSLKTFKRKSEVERGVKRMRHLST [A15G], the protein stability index was 2.35.

Regarding FSLKTFKRKSEVERTVKRMRHLST [A15T], the protein stability index was found to be 2.78.

As for FSLKTFKRKSEVERSVKRMRHLST [A15S], the protein stability index is 2.33.

As to FSLKTFKRKSEVERKVKRMRHLST [A15K], the protein stability index turned out to be 2.7.

As to FSLKTFKRKSEVERDVKRMRHLST [A15D], the protein stability index turned out to be 2.89.

As for FSLKTFKRKSEVERMVKRMRHLST [A15M], the protein stability index is 2.2.

Take FSLKTFKRKSEVERWVKRMRHLST [A15W]: the protein stability index was found to be 2.17.

For the variant FSLKTFKRKSEVERQVKRMRHLST [A15Q], the protein stability index worked out at 2.58.

Consider FSLKTFKRKSEVERHVKRMRHLST [A15H], for which the protein stability index is 2.87.

Regarding FSLKTFKRKSEVERRVKRMRHLST [A15R], the protein stability index was 3.91.
